Assay results reported in the nanobody polyreactivity screen of Harvey et al. (2022).

Assay: yeast display, Sf9 membrane polyspecificity reagent, FACS + sequencing; frameworks hold sequencing errors
In short: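 In a synthetic yeast display library (Saccharomyces cerevisiae BJ5465), nanobody expression was induced with galactose for 36–48 hours. FACS gates were set low and high (top ~1%) using anti-HA fluorescence for expression and streptavidin fluorescence for binding of the Sf9 membrane reagent. Each polyreactivity label is drawn from the gate of origin.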

Row | Sequence | polyreactivity (PSR sort gate)
1 | QVQLVESGGGLVQAGGSLRLSCAASGRTFPGYAMGWYRQAPGKERELVAVISWSGGRTNYADSVKGRFTISRDNAKNTVYLQMNSLKPEDTAVYYCAARYHGHSNDYWGQGTQVTVSS | low polyreactivity
2 | QVQLVESGGGLVQAGGSLRLSCAASGRTFPGYGMGWYRQAPGKERELVAVITSNGGITYYADSVKWRFTISRDIAKYTVYLVMNRLIAEDTAVYFCAAYEIYYEFVCWGQGSQVTVSS | low polyreactivity
3 | QVQLVESGGGLVQAGGSLRLSCAASGRTFPPYGMGWYRQAPGKERELVAAISKSSGSTNYADSVKGRFTISRDNAKNTVYLQMNSLKPEDTAVYYCNVDLYRWSKLAGAYRMDYWGQGTQVTVSS | low polyreactivity
4 | QVQLVESGGGLVQAGGSLRLSCAASGRTFPRYAMGWYRQAPGKERELVAAISRGGGTTYADSVKGRFTISRDNAKNTVYLQMNSLKPEDTAVYYCATRSPYSYPNLYYWGQGTQVTVSS | high polyreactivity
5 | QVQLVESGGGLVQAGGSLRLSCAASGRTFPSNAMGWYRQAPGKEREFVASITYSGGRTYYADSVKGRFTISRDNAKNTVYLQVNSLKPEDTAVYYCAAYPQFWYLDYNYWGQGTQVTVSS | high polyreactivity
6 | QVQLVESGGGLVQAGGSLRLSCAASGRTFPSYAMGWYRQAPGKERELVAAITTSGGSTYYADSVKGRFTISRDNAKNTVYLQMNSLKPEDTAVYYCAAAKPYSGSQYYYWGQGTQVTVSS | high polyreactivity
7 | QVQLVESGGGLVQAGGSLRLSCAASGRTFPSYVMGWYRQAPGKERELVAAITATGASTYYADSVKGRFTISRDNAKNTVYLQMNSQKPEDTAVYYCAASRYGLYENGYEYYWGQVTQVTVSS | low polyreactivity
8 | QVQLVESGGGLVQAGGSLRLSCAASGRTFPVNAMGWYRQAPGKEREFVAVISSTGTTYYADSVKGRFTISLDNAKITVYLQMNSLKPEDTAVYYCARRSNRRAYVNRVGVLRTVDYWGQGTQVTVSS | low polyreactivity
9 | QVQLVESGGGLVQAGGSLRLSCAASGRTFPWYGKGWYRPAPGKERELVAAISRTGGNTYYADSVKGRFTISRDNAKNTVYLQMNSLKPEDTAVYYCNAGYYSNRYYFYDYGYWGQGTQVTVSS | high polyreactivity
10 | QVQLVESGGGLVQAGGSLRLSCAASGRTFPYNAMGRYRQAPGKERELVAAISGRGGSTYYADSVKGRFTISRDNAKNTVYLQMNSLKPEDTAVYYCAVYTIYGFYYWGQGTQVTVSS | high polyreactivity
11 | QVQLVESGGGLVQAGGSLRLSCAASGRTFPYNAMGWYRQAPGKEMELVAVISSSGGSTYYADSVKGRFTISRDNAKNTVYLQMNSLKPEDTAVYYCNTRPYYYRRPGYRYSGYDYWGQGTQVTVSS | high polyreactivity
12 | QVQLVESGGGLVQAGGSLRLSCAASGRTFPYYAMGWYRQAPGKERELVAAISSSGGSTYYADSVKGRFTISRDNAKYTVYLQMNSLKPEDTAVYYCAAVYQFIKWGDRYEYWGQGTQVTVSS | high polyreactivity
13 | QVQLVESGGGLVQAGGSLRLSCAASGRTFPYYAMGWYRQAPGKERELVAAITSGGSTYYADSVKGRFTISRDNAKNTVYLQMNSLKPEDTAVYYCNALLGYYRWRRPVDYSYGSWGQGTQVTVSS | high polyreactivity
14 | QVQLVESGGGLVQAGGSLRLSCAASGRTFPYYAMGWYRQATGKERELVARIRSDGSTNYADSVKGRFTISRDNANNTVYLQMNSLKPEDTAVYYCAGKPYPSLFFHYGYWGQCTQVTVSS | low polyreactivity
15 | QVQLVESGGGLVQAGGSLRLSCAASGRTFPYYTMGWYREAPGKERELVAAIDGSGDNTYYADSVKGRFTISRDNAKNTLYLHMNSLKPEHTAVYYCTADTGLGTRDFEKRDYWGQGTQVTVSS | low polyreactivity
16 | QVQLVESGGGLVQAGGSLRLSCAASGRTFPYYTMGWYRQAPGKERELVAAIDGSGDNTYYADSVKGRFTISRDYAKNTVYLQMNSLKPEDTAVYYCTAEQWGSLDYWGQGTQVTVSA | low polyreactivity
17 | QVQLVESGGGLVQAGGSLRLSCAASGRTFPYYTMGWYRQAPGKERELVAAITSGGSTHYADSVKGRFTISRDNAKNTVYLQMNSLKPEDTAVYYCAADLFYHSYGYEYWGQGTQVTVSS | low polyreactivity
